What was measured:
Test in all cases: flow cytometry on cells
[1] = target: T1, C-terminally truncated Ste2p V49D (Saccharomyces cerevisiae, UniProt D6VTK4 1-303, V49D)
T1 sequence (looked up): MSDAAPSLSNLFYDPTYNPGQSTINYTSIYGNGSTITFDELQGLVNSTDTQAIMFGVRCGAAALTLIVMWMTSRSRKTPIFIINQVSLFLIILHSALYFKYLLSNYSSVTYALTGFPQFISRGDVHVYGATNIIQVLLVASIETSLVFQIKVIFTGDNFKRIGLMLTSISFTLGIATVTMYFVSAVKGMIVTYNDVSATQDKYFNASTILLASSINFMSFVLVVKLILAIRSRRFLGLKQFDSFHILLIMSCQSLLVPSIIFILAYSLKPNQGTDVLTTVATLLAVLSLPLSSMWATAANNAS

full-length Ste2p H94Y = target: T2, full-length Ste2p H94Y (Saccharomyces cerevisiae, UniProt D6VTK4 1-431, H94Y)
T2 sequence (looked up): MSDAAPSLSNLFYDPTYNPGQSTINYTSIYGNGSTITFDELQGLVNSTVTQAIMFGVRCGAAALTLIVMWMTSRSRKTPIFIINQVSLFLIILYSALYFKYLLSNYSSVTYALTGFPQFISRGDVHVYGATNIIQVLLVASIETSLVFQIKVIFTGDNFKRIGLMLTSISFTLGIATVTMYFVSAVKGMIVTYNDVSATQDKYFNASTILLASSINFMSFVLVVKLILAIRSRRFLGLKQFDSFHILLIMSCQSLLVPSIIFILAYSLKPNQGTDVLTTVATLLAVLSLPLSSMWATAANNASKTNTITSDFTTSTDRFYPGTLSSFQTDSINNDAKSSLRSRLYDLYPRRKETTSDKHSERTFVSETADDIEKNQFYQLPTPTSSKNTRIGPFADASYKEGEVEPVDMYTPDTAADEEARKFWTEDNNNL

[2] = target: T3, C-terminally truncated Ste2p H94Y (Saccharomyces cerevisiae, UniProt D6VTK4 1-303, H94Y)
T3 sequence (looked up): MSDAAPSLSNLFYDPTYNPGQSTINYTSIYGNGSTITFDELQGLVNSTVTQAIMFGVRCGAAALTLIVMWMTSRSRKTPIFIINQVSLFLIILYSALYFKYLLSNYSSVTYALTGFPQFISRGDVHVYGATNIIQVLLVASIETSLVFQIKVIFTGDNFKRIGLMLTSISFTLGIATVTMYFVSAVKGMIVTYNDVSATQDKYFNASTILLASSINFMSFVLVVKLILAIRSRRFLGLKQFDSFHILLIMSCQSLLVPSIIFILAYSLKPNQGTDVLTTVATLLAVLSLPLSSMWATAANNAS

[3] = target: T4, C-terminally truncated wild-type Ste2p (Saccharomyces cerevisiae, UniProt D6VTK4 1-303)
T4 sequence (looked up): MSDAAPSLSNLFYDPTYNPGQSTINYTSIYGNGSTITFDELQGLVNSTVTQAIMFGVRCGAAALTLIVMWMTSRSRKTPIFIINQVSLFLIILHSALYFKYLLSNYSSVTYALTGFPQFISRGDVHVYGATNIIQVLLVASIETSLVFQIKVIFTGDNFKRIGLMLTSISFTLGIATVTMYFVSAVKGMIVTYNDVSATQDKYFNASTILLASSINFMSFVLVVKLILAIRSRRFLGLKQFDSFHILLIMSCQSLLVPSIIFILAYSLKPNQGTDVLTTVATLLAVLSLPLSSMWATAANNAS

[4] = target: T5, C-terminally truncated Ste2p S104Y (Saccharomyces cerevisiae, UniProt D6VTK4 1-303, S104Y)
T5 sequence (looked up): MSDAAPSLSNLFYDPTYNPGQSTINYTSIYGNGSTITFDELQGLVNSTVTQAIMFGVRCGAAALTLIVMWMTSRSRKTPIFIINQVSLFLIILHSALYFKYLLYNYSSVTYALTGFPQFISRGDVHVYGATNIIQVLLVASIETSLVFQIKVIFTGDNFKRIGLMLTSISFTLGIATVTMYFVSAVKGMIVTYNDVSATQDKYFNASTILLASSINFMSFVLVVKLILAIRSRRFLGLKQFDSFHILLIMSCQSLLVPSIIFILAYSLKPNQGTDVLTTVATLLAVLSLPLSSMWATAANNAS

[5] = target: T6, C-terminally truncated Ste2p F38Y (Saccharomyces cerevisiae, UniProt D6VTK4 1-303, F38Y)
T6 sequence (looked up): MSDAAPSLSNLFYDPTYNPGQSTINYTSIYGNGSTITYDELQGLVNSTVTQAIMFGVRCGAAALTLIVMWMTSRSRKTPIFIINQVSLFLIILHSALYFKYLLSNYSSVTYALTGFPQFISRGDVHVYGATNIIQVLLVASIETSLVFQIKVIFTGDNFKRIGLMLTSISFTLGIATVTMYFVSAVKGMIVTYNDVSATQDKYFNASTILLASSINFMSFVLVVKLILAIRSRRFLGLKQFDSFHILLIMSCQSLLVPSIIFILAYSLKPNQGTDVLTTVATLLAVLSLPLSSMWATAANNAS

B1: [K^7(NBD),Nle^12] α-factor (peptide)
chain: WHWLQLKPGQPMY
modifications: NBD (7-nitrobenz-2-oxa-1,3-diazol-4-yl) conjugated to the lysine at position 7; norleucine at position 12 in place of methionine
[1]
  Kd: 23 ± 3.3 nM
full-length Ste2p H94Y
  Kd: 5.2 ± 2.1 nM
[2]
  Kd: 47 ± 8.1 nM
[3]
  Kd: 19 ± 3.8 nM
[4]
  Kd: 12 ± 3.4 nM
[5]
  Kd: 59 ± 11 nM
